One molecule from US11673947B2, “Target tissue-specific antigen-binding molecule” (Chugai Seiyaku Kabushiki Kaisha, priority 2012, dated 2023) can be followed below.

Series [1] in a line: Phage ELISA, binding to 2′-adenosine-PEG-biotin, 5′-adenosine-PEG-biotin and ATP-PEG-biotin. On the procedure: From single colonies of E. coli obtained by panning as described in the Example above, culture supernatants containing phages were collected according to a conventional method (Method Mol. Biol. (2002) 178, 133-145). The collected culture supernatants were treated by ultrafiltration using NucleoFast 96 (MACHERY-NAGEL). 100 μl of the culture supernatants were added to each well of NucleoFast 96 and centrifuged at 4500 g for 45 minutes to remove flow through. After addition of 100 μl of H2O, the NucleoFast 96 was washed by centrifugation at 4500 g for 30 minutes. After addition of 100 μl of TBS, the NucleoFast 96 was allowed to stand for five minutes at room temperature. Then, phage suspensions were collected from the supernatants.
Purified phages, to which TBS was added, were subjected to ELISA by the following procedure. […] Then, the developed color was assessed by measuring absorbance at 450 nm.
Next, for the purpose of confirming to which antigen of 2′-adenosine-PEG-biotin, 5′-adenosine-PEG-biotin, and ATP-PEG-biotin these clones have binding ability, the purified phages diluted with TBS were subjected to ELISA by the following procedure. […] Then, the developed color was assessed by measuring absorbance at 450 nm.
(An ELISA detects its analyte on a solid surface through an enzyme-linked reagent.)

Series [2] is described as follows: Competitive phage ELISA, inhibition of binding to biotin-labeled antigens by ATP. As to conditions: ATP from an equal amount up to 10000 times that of the antigen. On the procedure:
ATNLSA1-4_D12 and PF1 were each diluted with TBS and subjected to ELISA by the following procedure.
A StreptaWell 96 microtiter plate (Roche) was coated at room temperature for one hour with 100 μl of TBS containing biotin-labeled antigens (a mixture of 5′-adenosine-PEG-biotin and ATP-PEG-biotin). After the antigens were removed by washing each well of the plate with TBST, the wells were blocked with 250 μl of 2% skim milk/TBS for one hour or more. 2% skim milk/TBS was removed, and then the prepared, purified phages were added to each well. The plate was allowed to stand at room temperature for one hour to allow binding of the antibody-displaying phages to the antigens in each well. […] For the competition of the immobilized antigen with ATP, the plate was allowed to stand at room temperature for one hour. Then, after TBST wash, an HRP-conjugated anti-M13 antibody (Amersham Pharmacia Biotech) diluted with TBS was added to each well. The plate was incubated for one hour. Following TBST wash, the TMB single solution (ZYMED) was added to each well. The chromogenic reaction in the solution of each well was terminated by adding sulfuric acid. Then, the developed color was assessed by measuring absorbance at 450 nm.

Series [3] in a line: Biacore T200, binding of D12 and ATNLSA1-4_D12 variants to ATP. The following applies: 50 mM Tris-HCl, 500 mM NaCl, 0.01% Tween20, 15° C. An excerpt:
Biacore T200 (GE Healthcare) was used to analyze the interaction of D12, in which the constant region of IgG is linked to the variable region of clone ATNLSA1-4_D12 with ATP- and adenosine-binding activity, in antigen-antibody reaction. Sensor chip CM5 or CM4 (GE Healthcare) was immobilized with an appropriate amount of protein A (Life technologies) by amine coupling. The antibody of interest was captured by the chip to allow interaction with ATP (Wako), adenosine (Wako), or ADP (adenosine diphosphate) (Wako) as an antigen. The running buffer used was 50 mM Tris-HCl (Takara, T903), 500 mM NaCl, 0.01% (w/v) Tween20. […] The interaction with the antigen was assessed at 15° C. […]
(§1) The dissociation constant KD (M) was calculated based on the association rate constant ka (1/Ms) and dissociation rate constant kd (1/s), both of which are kinetic parameters calculated from the sensorgram obtained by the measurement. Alternatively, the dissociation constant KD (M) was calculated using steady state analysis. Each parameter was calculated using the Biacore T200 Evaluation Software (GE Healthcare).
Each variant expressed and purified by the method described in Example 7-1 was assayed for its ATP and adenosine binding by the same method as described in Example 7-6 using Biacore. Based on the assay result, the affinity of each variant for ATP was calculated as a KD value. […]
On the technique in general: SPR reads the build-up and loss of mass on a sensor chip optically.

A short description of series [4]: Biacore T200, binding of D12 to ADP. As to conditions: 50 mM Tris-HCl, 500 mM NaCl, 0.01% Tween20, 15° C.
Excerpt: (§2) Biacore T200 (GE Healthcare) was used to analyze the interaction of D12, in which the constant region of IgG is linked to the variable region of clone ATNLSA1-4_D12 with ATP- and adenosine-binding activity, in antigen-antibody reaction. Sensor chip CM5 or CM4 (GE Healthcare) was immobilized with an appropriate amount of protein A (Life technologies) by amine coupling. The antibody of interest was captured by the chip to allow interaction with ATP (Wako), adenosine (Wako), or ADP (adenosine diphosphate) (Wako) as an antigen. The running buffer used was 50 mM Tris-HCl (Takara, T903), 500 mM NaCl, 0.01% (w/v) Tween20. The antigen was allowed to interact for 30 seconds at a flow rate of 30 μl/min, and was dissociated for 30 seconds. The interaction with the antigen was assessed at 15° C. The antigen was diluted using the same running buffer.
as §1

Series [5] in a line: Biacore T200, binding of D12 and variants to adenosine (steady state, Formula 2). The following applies: 15° C., specific response with/without 20 μmol/l ADP.
Excerpt: as §2, §1
In addition, the binding response was separately assessed in the presence of 20 μmol/l ADP. […]

A short description of a further series: Tm measurement by DSC. It is filed as physicochemical. On the procedure: Then, for the purpose of improving antibody stability, the framework sequence of ATNLSA1-4_D12 was restored to the germ line sequence VH3-21 by introducing into the framework sequence of ATNLSA1-4_D12, alterations Gln01Glu, Gln05Val, Asp10Gly, Asn30Ser, Leu48Val, and Asn58Tyr (numerals represent Kabat numbers). ATNLSA1-4_D12 variants expressed and purified by the method described in Example 7-1 were measured for their Tm by DSC. DSC measurement was carried out by a method known to those skilled in the art.
(Differential scanning calorimetry records heat flow against a reference as temperature is scanned.)

B1: ATNLSA1-4_D12: ATP/adenosine-binding antibody from human antibody library; variable regions SEQ ID NOs: 46 and 47 (antibody, listed as Homo sapiens, V domains shown)
VH: QVQLQESGGDLVKPGGSLRLSCAASGFTFNTYTMNWVRQAPGKGLEWLSSISSRSNYINYADSVKGRFTISRDNAKNSLYLQMNSLRAEDTAVYYCARFGRKGDLNWVFDYWGQGTLVTVSS
VL: QSALTQPPSASGSPGQSVTISCTGTSSDVGGYNYVSWYQQHPGKAPKLMIYEVSKRPSGVPDRFSGSKSGNTASLTVSGLQAEDEADYFCSSYAGSNNVVFGGGTKLTVL
As usually defined, the Kd is the free concentration of one partner at which half of the binding sites on the other are occupied at equilibrium, for simple one-to-one binding. By Tm is commonly meant the temperature at which the thermal transition is half complete. Take B1: in series [1], the “binding to biotin-labeled antigens (phage ELISA)” value is “had the ability to bind to both 5′-Adenosine-PEG-biotin and ATP-PEG-biotin”. Moreover, in series [2], the “binding to antigen in the presence of ATP” value is listed as “inhibited in an ATP concentration-dependent manner”. In addition, the values for the Kd in series [3], in series [4] and in series [5] were 8.5 µM, 0.25 µM and 1100 µM, respectively. Besides, the Tm in the series “Tm measurement by DSC” worked out at 74.37 °C.
